Positions count from the first letter of the chain named. Names may count otherwise.
B1: EGFP-tagged RepoMan-WT, Q69YH5 S400D; T412D; T419D (protein)
chain: MDANSKDKPPETKESAMNNAGNASFILGTGKIVTPQKHAELPPNPCTPDTFKSPLNFSTVTVEQLGITPESFVRNSAGKSSSYLKKCRRRSAVGARGSPETNHLIRFIARQQNIKNARKSPLAQDSPSQGSPALYRNVNTLRERISAFQSAFHSIKENEKMTGCLEFSEAGKESEMTDLTRKEGLSACQQSGFPAVLSSKRRRISYQRDSDENLTDAEGKVIGLQIFNIDTDRACAVETSVDLSEISSKLGSTQSGFLVEESLPLSELTETSNALKVADCVVGKGSSDAVSPDTFTAEVSSDAVPDVRSPATPACRRDLPTPKTFVLRSVLKKPSVKMCLESLQEHCNNLYDDDGTHPSLISNLPNCCKEKEAEDEENFEAPAFLNMRKRKRVTFGEDLDPEVFDESLPANDPLRKGGDPVCKKDFSGLSSLLLEQSPVPEPLPQPDFDDKGENLENIEPLQVSFAVLSSPNKSSISETLSGTDTFSSSNNHEKISSPKVGRITRTSNRRNQLVSVVEESVCNLLNTEVQPCKEKKINRRKSQETKCTKRALPKKSQVLKSCRKKKGKGKKSVQKSLYGERDIASKKPLLSPIPELPEVPEMTPSIPSIRRLGSGYFSSNGKLEEVKTPKNPVKRKDLLRHDPDLHMHQGYDKYDVSEFCSYIKSSSSLGNATSDEDPNTNIMNINENKNIPKAKNKSESENEPKAGTDSPVSCASVTEERVASDSPKPALTLQQGQEFSAGGQNAENLCQFFKISPDLNIKCERKDDFLGAAEGKLQCNRLMPNSQKDCHCLGDVLIENTKESKSQSEDLGRKPMESSSVVSCRDRKDRRRSMCYSDGRSLHLEKNGNHTPSSSVGSSVEISLENSELFKDLSDAIEQTFQRRNSETKVRRSTRLQKDLENEGLVWISLPLPSTSQKAKRRTICTFDSSGFESMSPIKETVSSRQKPQMAPPVSDPENSQGPAAGSSDEPGKRRKSFCISTLANTKATSQFKGYRRRSSLNGKGESSLTALERIEHNGERKQ
B2: EGFP-tagged RepoMan-WT, Q69YH5 T412D (protein)
chain: B1 chain with D400S, D419T

Target: protein phosphatase PP1 (endogenous), P36873
Test: EGFP trap, immunoblotting, densitometric analysis
Conditions: chain shown with the change; non-synchronized HEK293T cells; three independent experiments; parent: est. 1.0; read off a plot

Chain of protein phosphatase PP1 (endogenous), P36873 (P36873 whole entry): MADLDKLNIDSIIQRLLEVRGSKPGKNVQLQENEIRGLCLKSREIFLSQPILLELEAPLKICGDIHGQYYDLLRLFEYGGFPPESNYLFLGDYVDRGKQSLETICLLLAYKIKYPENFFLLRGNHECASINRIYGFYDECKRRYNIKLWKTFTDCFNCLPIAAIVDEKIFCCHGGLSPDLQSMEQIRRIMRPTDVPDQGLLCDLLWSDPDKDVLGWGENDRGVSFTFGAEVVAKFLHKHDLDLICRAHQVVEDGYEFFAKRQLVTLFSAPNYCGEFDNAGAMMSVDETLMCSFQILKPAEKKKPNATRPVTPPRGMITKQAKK

Binder	ratio to parent
B1	0.19
B2	0.43

— paper PMC4703885
